From patent publication US20130280259A1, “USE OF ANTIBODIES AGAINST NK1, NK2 AND/OR NK3 RECEPTORS IN CANCER TREATMENT” (SERVICIO ANDALUZ DE SALUD, priority 2010, published 2013)
Each block holds one compound with its values, some of them ahead of it.

What was measured:
[1] = target: NK2 receptor (human) (UniProt P21452); assay: cell-based or functional assay
[2] = test system: human breast cancer cells; conditions: Singh D et al., 2000; Bigioni M. et al., 2005; cited from earlier work
[3] = target: NK3 receptor (human) (UniProt P29371); assay: cell-based or functional assay
Chain of UniProt P29371 (P29371 whole entry): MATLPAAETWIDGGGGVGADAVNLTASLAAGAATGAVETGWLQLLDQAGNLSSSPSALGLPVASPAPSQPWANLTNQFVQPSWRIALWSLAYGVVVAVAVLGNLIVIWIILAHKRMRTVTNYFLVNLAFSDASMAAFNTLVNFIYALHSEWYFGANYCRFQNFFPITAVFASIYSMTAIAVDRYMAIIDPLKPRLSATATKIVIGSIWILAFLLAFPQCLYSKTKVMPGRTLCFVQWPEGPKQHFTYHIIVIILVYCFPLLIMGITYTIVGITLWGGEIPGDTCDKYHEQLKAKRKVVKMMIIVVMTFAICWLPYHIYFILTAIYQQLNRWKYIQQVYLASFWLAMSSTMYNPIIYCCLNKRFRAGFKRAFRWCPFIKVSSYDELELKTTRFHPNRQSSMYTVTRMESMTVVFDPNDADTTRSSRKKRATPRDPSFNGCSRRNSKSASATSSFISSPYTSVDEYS

[4] = test system: primary human fibroblasts (PHF); assay: Immunohistochemistry of tumour microenvironment markers in primary human fibroblasts; type: cell-based
Procedure: A sample of each of the cultures of the cell lines was centrifuged (5 minutes at 1,500 rpm) and the pellet obtained was dehydrated by treatment at growing concentrations of ethanol and finally in xylol. Then these dehydrated samples were included in paraffin creating a block of cells. These paraffin blocks were cut in a microtome at a thickness of 5 micra and deparaffinised by sinking in xylol, to be subsequently hydrated through a number of solutions containing decreasing concentrations of ethanol and be finally sank in water. Then, these samples were subject to treatment in a pressure cooker in citrate buffer 10× at pH 6.0, to obtain a higher exposure of antigens. Subsequently, the samples were cooled at room temperature for 10 minutes. The endogenous peroxidase activity was blocked with 3% hydrogen peroxide for 30 minutes at room temperature. After washing the samples with 0.05 M of Tris buffer, they were incubated with swine non-immune serum at 10% for 30 minutes at room temperature. […]
PHF were obtained and purified from samples obtained from the skin dermis as described in De Bari et al. (De Bari et al., 2001). In brief, small pieces of skin dermis were digested in a hyaluronidase solution (Sigma-Aldrich, St. Louis, Mo., US) at a concentration of 1 mg/mL for 15 minutes at 37° C. and subsequently treated with 6 mg/mL of type IV collagenase (Invitrogen) for 2 hours at 37° C. Then the cells were washed, resuspended in DMEM culture medium with a high concentration of glucose (Dulbecco's Modified Eagle's Medium, Invitrogen) supplemented with 1% of antibiotics-antimicotics (Invitrogen) and with 1% of sodium pyruvate (Invitrogen), and sown in 6-well culture plaques at a concentration of 10,000 cells per square centimetre. When the cells reached confluence, the adherent cells were separated using 0.5% sterile trypsin (Invitrogen) and were used between runs 3 and 9. For stimulation of substance P and exposure to anti-NK1, anti-NK2 and anti-NK3 antibodies, PHF were sown in 24-well plaques at a concentration of 25,000 cells per well.
For the purpose of analysing the expression of these cell markers in PHF cultures in the presence of the NK1, NK2 and NK3 receptor agonist and in the presence of anti-NK1, NK2 or NK3 antibodies, these cells were cultured in the presence of substance P (NK1, NK2 and NK3 receptor agonist) at a concentration of 1 μM (product no. S6883; Sigma-Aldrich). In other wells and simultaneously these cells were cultured with substance P at the same concentration and simultaneously together with anti-NK1, anti-NK2 or anti-NK3 antibodies (Sigma-Aldrich) at a 1/100 concentration. After 48 hours of culture, the cells were recollected and cell blocks were built for immunohistochemistry assays, as explained in example 1. In the immunohistochemistry assays, the expression of the following markers was assayed: TGF-alpha (SAB4502953), TGF-beta 1 (SAB4502954), TGF-beta 2 (SAB4502956), TGF-beta 3 (SAB4502957), SPARC(HPA002989) MMP-3 (HPA007875); MMP-7 (SAB4501894), MMP-9 (SAB4501896), MMP-11 (SAB4501898), MMP-13 (SAB4501900) and MMP-14 (SAB4501901), by specific antibodies against them. For performing these immunohistochemistry assays, all antibodies were mouse polyclonal antibodies obtained from Sigma Aldrich, used at a 1/1000 concentration. The immunohistochemistry techniques were performed as described in Example 1. The results are summarised in Table 2, that gives the type of marker and the mean percentage of cells with immunostaining for this marker.
(§1) To assess immunostaining, six serial sections were made of each block placed over slides for performing the immunohistochemistry technique for each marker. Therefore, the immunohistochemical assay was performed six times for each marker in each case. In each of the six sections, cell count was performed in 20 fields of high magnification (400×) using a microscope of Olympus brand (model CX31). […]

[5] = test system: human mononuclear blood cells; assay: Immunohistochemistry of TGF-beta and NF-kB in mononuclear blood cells; type: cell-based; conditions: incubated with PHF; Substance P (1 μM) alone; 48 hours
Description: (§2) Heparinised blood from healthy donors was centrifuged, separating the different components thereof. Red blood cells remain in the bottom of the tube. Above them, there is a small whitish layer formed by white blood cells and above, in the upper part of the tube, blood plasma. The white blood cell layer was distributed in a culture plate of 24 wells, adding to each of them the same concentration of blood plasma supplemented with 1% of antibiotics-antimicotics (Invitrogen). About 1000 cells (PHF) from the skin dermis, obtained as described above, were added to each well.
as §1, with “CX31). In each field, the total cell number and the number of cells with immunostaining were counted, subsequently measuring the percentage of cells with this immunostaining.” for “CX31).”
(§3) The modification of the peritumoural microenvironment by treatment with anti-NK1, NK2 and/or NK3 antibodies has also been analysed determining the involvement of mononuclear and polymorphonuclear blood cells in this tumoural microenvironment. […]

[6] = test system: human polymorphonuclear blood cells; assay: Immunohistochemistry of TGF-beta and NF-kB in polymorphonuclear blood cells; type: cell-based; conditions: incubated with PHF; Substance P (1 μM) alone; 48 hours
Description: as §2
as §1, with “CX31). In each field, the total cell number and the number of cells with immunostaining were counted, subsequently measuring the percentage of cells with this immunostaining.” for “CX31).”
as §3

[7] = PHF, Substance P (1 μM) alone, 48 hours

Chain of UniProt P21452 (P21452 whole entry): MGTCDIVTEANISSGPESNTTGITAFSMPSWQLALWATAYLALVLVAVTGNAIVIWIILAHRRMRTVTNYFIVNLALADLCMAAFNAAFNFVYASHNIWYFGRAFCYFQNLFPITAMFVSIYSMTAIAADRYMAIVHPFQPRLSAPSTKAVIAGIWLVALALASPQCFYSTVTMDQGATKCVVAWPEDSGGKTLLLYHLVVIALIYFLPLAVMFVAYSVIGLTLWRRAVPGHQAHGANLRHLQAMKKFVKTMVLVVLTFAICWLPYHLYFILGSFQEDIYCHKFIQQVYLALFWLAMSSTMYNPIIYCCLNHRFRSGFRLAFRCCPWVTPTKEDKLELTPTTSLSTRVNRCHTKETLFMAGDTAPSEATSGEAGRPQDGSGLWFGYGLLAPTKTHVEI

% of fibroblast cells with expression for MMP-3; anti-NK2 (1/100) and Substance P (1 µM) [1]: 0% | % of fibroblast cells with expression for MMP-7; anti-NK2 (1/100) and Substance P (1 µM) [1]: 0% | % of fibroblast cells with expression for MMP-9; anti-NK2 (1/100) and Substance P (1 µM) [1]: 0% | % of fibroblast cells with expression for MMP-11; anti-NK2 (1/100) and Substance P (1 µM) [1]: 0% | % of fibroblast cells with expression for MMP-13; anti-NK2 (1/100) and Substance P (1 µM) [1]: 0% | % of fibroblast cells with expression for MMP-14; anti-NK2 (1/100) and Substance P (1 µM) [1]: 0% | % of fibroblast cells with expression for SPARC; anti-NK2 (1/100) and Substance P (1 µM) [1]: 0% | % of fibroblast cells with expression for TGF-alpha; anti-NK2 (1/100) and Substance P (1 µM) [1]: 0% | % of fibroblast cells with expression for TGF-beta 1; anti-NK2 (1/100) and Substance P (1 µM) [1]: 0% | % of fibroblast cells with expression for TGF-beta 2; anti-NK2 (1/100) and Substance P (1 µM) [1]: 0% | % of fibroblast cells with expression for TGF-beta 3; anti-NK2 (1/100) and Substance P (1 µM) [1]: 0% | % of mononuclear cells with expression for NF-kB; anti-NK2 (1/100) and Substance P (1 µM) [1]: 0% | % of mononuclear cells with expression for TGF-beta; anti-NK2 (1/100) and Substance P (1 µM) [1]: 0% | % of polymorphonuclear cells with expression for NF-kB; anti-NK2 (1/100) [1]: 0% | % of polymorphonuclear cells with expression for TGF-beta; anti-NK2 (1/100) [1]: 0%
Compound: anti-NK2 antibody (Sigma-Aldrich, product number HPA012084)

Compound: CC(=O)NC1(c2ccccc2)CCN(CC[C@H](CN(C)C(=O)c2ccccc2)c2ccc(Cl)c(Cl)c2)CC1 [SR 48968]
Blocking cell proliferation [2]: efficacy in blocking cell proliferation

% of fibroblast cells with expression for MMP-3; anti-NK3 (1/100) and Substance P (1 µM) [3]: 0% | % of fibroblast cells with expression for MMP-7; anti-NK3 (1/100) and Substance P (1 µM) [3]: 0% | % of fibroblast cells with expression for MMP-9; anti-NK3 (1/100) and Substance P (1 µM) [3]: 0% | % of fibroblast cells with expression for MMP-11; anti-NK3 (1/100) and Substance P (1 µM) [3]: 0% | % of fibroblast cells with expression for MMP-13; anti-NK3 (1/100) and Substance P (1 µM) [3]: 0% | % of fibroblast cells with expression for MMP-14; anti-NK3 (1/100) and Substance P (1 µM) [3]: 0% | % of fibroblast cells with expression for SPARC; anti-NK3 (1/100) and Substance P (1 µM) [3]: 0% | % of fibroblast cells with expression for TGF-alpha; anti-NK3 (1/100) and Substance P (1 µM) [3]: 0% | % of fibroblast cells with expression for TGF-beta 1; anti-NK3 (1/100) and Substance P (1 µM) [3]: 0% | % of fibroblast cells with expression for TGF-beta 2; anti-NK3 (1/100) and Substance P (1 µM) [3]: 0% | % of fibroblast cells with expression for TGF-beta 3; anti-NK3 (1/100) and Substance P (1 µM) [3]: 0% | % of mononuclear cells with expression for NF-kB; anti-NK3 (1/100) and Substance P (1 µM) [3]: 0% | % of mononuclear cells with expression for TGF-beta; anti-NK3 (1/100) and Substance P (1 µM) [3]: 0% | % of polymorphonuclear cells with expression for NF-kB; anti-NK3 (1/100) [3]: 0% | % of polymorphonuclear cells with expression for TGF-beta; anti-NK3 (1/100) [3]: 0%
Compound: anti-NK3 antibody (Sigma-Aldrich, product number HPA009418)

Compound: Substance P
Immunostaining for the markers tested (TGF-alpha, TGF-beta 1-3, SPARC, MMPs) ([4]; PHF cell cultures treated only with substance P): presence of all markers tested | Percentage of cells with expression for MMP-3 [4, 7]: 33.9% | Percentage of cells with expression for MMP-7 [4, 7]: 46.2% | Percentage of cells with expression for MMP-9 [4, 7]: 35.5% | Percentage of cells with expression for MMP-11 [4, 7]: 7.8% | Percentage of cells with expression for MMP-13 [4, 7]: 17.1% | Percentage of cells with expression for MMP-14 [4, 7]: 47.3% | Percentage of cells with expression for SPARC [4, 7]: 16% | Percentage of cells with expression for TGF-alpha [4, 7]: 16.5% | Percentage of cells with expression for TGF-beta 1 [4, 7]: 18.4% | Percentage of cells with expression for TGF-beta 2 [4, 7]: 24.6% | Percentage of cells with expression for TGF-beta 3 [4, 7]: 23.1% | Percentage of mononuclear cells with expression for NF-kB [5]: 25.7% | Percentage of mononuclear cells with expression for TGF-beta [5]: 16.4% | Percentage of polymorphonuclear cells with expression for NF-kB [6]: 17.5% | Percentage of polymorphonuclear cells with expression for TGF-beta [6]: 36.8%
